Publication PMC3436905
Where two headings read alike, the source gives them in different places.

Columns and labels:
[1] = target: surface vimentin (human (endogenous in HeLa and HT-29)) (UniProt P08670); assay: flow cytometry on cells
[2] = target: surface vimentin (human (endogenous in HeLa and HT-29)) (UniProt P08670); assay: flow cytometry on cells; remark: listed apart in the source

Sequence of UniProt P08670 (P08670 whole entry): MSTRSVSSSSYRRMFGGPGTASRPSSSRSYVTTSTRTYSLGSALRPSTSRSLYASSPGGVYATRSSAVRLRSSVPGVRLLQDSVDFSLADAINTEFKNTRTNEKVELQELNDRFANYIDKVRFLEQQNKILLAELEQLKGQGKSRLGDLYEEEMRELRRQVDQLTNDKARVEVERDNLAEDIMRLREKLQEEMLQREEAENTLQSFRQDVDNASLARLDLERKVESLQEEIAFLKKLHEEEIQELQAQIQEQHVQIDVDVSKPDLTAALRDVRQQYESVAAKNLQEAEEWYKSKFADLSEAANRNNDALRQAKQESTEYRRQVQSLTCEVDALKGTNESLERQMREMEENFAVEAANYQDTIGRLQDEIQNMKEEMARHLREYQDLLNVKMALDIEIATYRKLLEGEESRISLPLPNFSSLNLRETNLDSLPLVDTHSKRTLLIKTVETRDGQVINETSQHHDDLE

In the case of “Cowpea mosaic virus nanoparticles (complex)”, the percent of cells positive for CPMV uptake [1] is reported as 17% and the percent of cells positive for CPMV uptake [2] is reported as 38%.
